In experiment [1] the target is T1, Tiam1 PDZ domain (Homo sapiens, UniProt Q13009). Nature of the experiment: NMR chemical shift titration of N-acetylated peptides. The class given is binding. Particulars: Kd (Model)/Kd (peptide); both Kd by NMR titration.
In experiment [2] the target is T1, Tiam1 PDZ domain. Nature of the experiment: Fluorescence anisotropy binding assay of dansylated peptides.
Experiment [3] deals with T2, Tiam1 PDZ domain (residues 841-930) (human, UniProt Q13009 841-930). Nature of the experiment: fluorescence polarisation. (Polarisation of emitted light reports the rotation of a fluorescent probe.)
The target of experiment [4] is T2, Tiam1 PDZ domain (residues 841-930). Kind of experiment: NMR titration.
Experiment [5] has the same target. Kind of experiment: fluorescence polarisation. The source holds these as a separate data set.

Ends that are not written are not given here. * marks the point of attachment. Dansyl = CN(C)c1cccc2c(S(=O)(=O)*)cccc12 Bounds are passed on as bounds.

These results are taken from paper PMC5489123 (Journal of molecular biology, 2010).

T2 sequence (Q13009 841-930): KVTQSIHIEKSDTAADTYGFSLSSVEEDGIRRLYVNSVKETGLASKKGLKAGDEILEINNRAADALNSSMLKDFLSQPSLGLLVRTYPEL
T1 sequence (Q13009 841-930): as above

In general, Kd refers to the constant that tells how readily two partners part at equilibrium. Low values mean a tighter complex, high ones a looser complex. Ac-NKDKEYYV [Neurexin1]: the “Fold versus Model” value on Tiam1 PDZ domain [1] was determined as 0.05. At Tiam1 PDZ domain [2], this molecule returned a Kd greater than 100 µM.

B1: Model Tiam1-binding peptide, N-terminally dansylated (peptide)
peptide: Dansyl-SSRKEYYA
B1: the Kd in experiment [3] is greater than 100 µM.

B2: Neurexin-1 C-terminal peptide (residues 1470-1477), N-terminally acetylated (Ac-NKDKEYYV) (peptide)
peptide: Ac-NKDKEYYV
B2 gave a Kd in experiment [4] of 2400 ± 250 µM.

B3: Caspr4(F→A) peptide, dansylated (dan-ENQKEYFA) (peptide)
peptide: Dansyl-ENQKEYFA
In the case of B3, the Kd in experiment [5] was determined as 64.8 ± 5.9 µM.

B4: Syndecan1(A→F) peptide, dansylated (dan-TKQEEFYF) (peptide)
peptide: Dansyl-TKQEEFYF
Regarding B4, in experiment [5], the Kd came out at 55.7 ± 3.6 µM.

B5: Syndecan1 C-terminal peptide (residues 303-310), N-terminally dansylated (dan-TKQEEFYA) (peptide)
peptide: Dansyl-TKQEEFYA
Take B5: the Kd in experiment [5] was determined as 26.9 ± 0.9 µM. Compared with the last molecule, the Kd is about 2.1-fold lower.

B6: Caspr4 C-terminal peptide (residues 1301-1308), N-terminally dansylated (dan-ENQKEYFF) (peptide)
peptide: Dansyl-ENQKEYFF
On to B6, for which, in experiment [5], binding was put at a Kd of 16.8 ± 5.4 µM.

B7: Neurexin-1 C-terminal peptide (residues 1470-1477), N-terminally dansylated (peptide)
peptide: NKDKEYYV-OH
modifications: not fully specified (N-terminus)
Molecule B7 yielded a Kd in experiment [3] greater than 100 µM.

B8: Model Tiam1-binding peptide, N-terminally acetylated (Ac-SSRKEYYA) (peptide)
peptide: Ac-SSRKEYYA
With B8, the Kd in experiment [4] is 112 ± 15 µM.
